Sequences and labels used below:
B1: TRANSPARENT TESTA GLABRA1 (TTG1) fused to GST (natural protein, Arabidopsis, UniProt Q9XGN1 1-341, looked up)
chain: MDNSAPDSLSRSETAVTYDSPYPLYAMAFSSLRSSSGHRIAVGSFLEDYNNRIDILSFDSDSMTVKPLPNLSFEHPYPPTKLMFSPPSLRRPSSGDLLASSGDFLRLWEINEDSSTVEPISVLNNSKTSEFCAPLTSFDWNDVEPKRLGTCSIDTTCTIWDIEKSVVETQLIAHDKEVHDIAWGEARVFASVSADGSVRIFDLRDKEHSTIIYESPQPDTPLLRLAWNKQDLRYMATILMDSNKVVILDIRSPTMPVAELERHQASVNAIAWAPQSCKHICSGGDDTQALIWELPTVAGPNGIDPMSVYSAGSEINQLQWSSSQPDWIGIAFANKMQLLRV
notes: TTG1 (TRANSPARENT TESTA GLABRA1), WD40 repeat protein of Arabidopsis; The methods describe the cloning of only EGL3 into pGEX4T-1; the making of TTG1-GST is not described; also called TTG1-GST; source: recombinant, purified
B2: WEREWOLF (WER) fused to GST (natural protein, Arabidopsis, UniProt Q9SEI0 1-203, looked up)
chain: MRKKVSSSGDEGNNEYKKGLWTVEEDKILMDYVKAHGKGHWNRIAKKTGLKRCGKSCRLRWMNYLSPNVKRGNFTEQEEDLIIRLHKLLGNRWSLIAKRVPGRTDNQVKNYWNTHLSKKLGIKDQKTKQSNGDIVYQINLPNPTETSEETKISNIVDNNNILGDEIQEDHQGSNYLSSLWVHEDEFELSTLTNMMDFIDGHCF
notes: WER (WEREWOLF), R2R3 MYB-domain transcription factor of Arabidopsis; The methods describe the cloning of only EGL3 into pGEX4T-1; the making of WER-GST is not described; also called WER-GST; source: recombinant, purified
B3: His-fused BIN2 (enzyme, Arabidopsis, UniProt Q39011 1-380, looked up)
chain: MADDKEMPAAVVDGHDQVTGHIISTTIGGKNGEPKQTISYMAERVVGTGSFGIVFQAKCLETGETVAIKKVLQDRRYKNRELQLMRVMDHPNVVCLKHCFFSTTSKDELFLNLVMEYVPESLYRVLKHYSSANQRMPLVYVKLYMYQIFRGLAYIHNVAGVCHRDLKPQNLLVDPLTHQVKICDFGSAKQLVKGEANISYICSRFYRAPELIFGATEYTTSIDIWSAGCVLAELLLGQPLFPGENAVDQLVEIIKVLGTPTREEIRCMNPHYTDFRFPQIKAHPWHKIFHKRMPPEAIDFASRLLQYSPSLRCTALEACAHPFFDELREPNARLPNGRPFPPLFNFKQEVAGSSPELVNKLIPDHIKRQLGLSFLNQSGT
notes: BIN2 (BRASSINOSTEROID … 2), GSK3-like kinase of Arabidopsis, cloned into the PET28a vector; Primers are in Supplementary file 1; also called BIN2-His; source: E. coli BL21 (DE3) pLySs, purified (Ni-NTA agarose)

Assay [1] has as its target B3. Briefly: pull-down; GST fusions bound to GST resin, BIN2-His added, 2 hr at 4°C; 10 mM phosphate buffer pH 7.4, 140 mM NaCl, 3 mM KCl, 0.1% Triton X-100; immunoblot with anti-His antibody. The following applies: both partners purified. A general note: Immunoblotting shows a protein as a band on a membrane.
In assay [2] the target is T1, GST-fused EGL3 (Arabidopsis, UniProt Q9CAD0 1-596).
T1 construct: also called EGL3-GST; source: E. coli BL21 (DE3) pLySs, purified (glutathione resin)
T1 sequence (looked up): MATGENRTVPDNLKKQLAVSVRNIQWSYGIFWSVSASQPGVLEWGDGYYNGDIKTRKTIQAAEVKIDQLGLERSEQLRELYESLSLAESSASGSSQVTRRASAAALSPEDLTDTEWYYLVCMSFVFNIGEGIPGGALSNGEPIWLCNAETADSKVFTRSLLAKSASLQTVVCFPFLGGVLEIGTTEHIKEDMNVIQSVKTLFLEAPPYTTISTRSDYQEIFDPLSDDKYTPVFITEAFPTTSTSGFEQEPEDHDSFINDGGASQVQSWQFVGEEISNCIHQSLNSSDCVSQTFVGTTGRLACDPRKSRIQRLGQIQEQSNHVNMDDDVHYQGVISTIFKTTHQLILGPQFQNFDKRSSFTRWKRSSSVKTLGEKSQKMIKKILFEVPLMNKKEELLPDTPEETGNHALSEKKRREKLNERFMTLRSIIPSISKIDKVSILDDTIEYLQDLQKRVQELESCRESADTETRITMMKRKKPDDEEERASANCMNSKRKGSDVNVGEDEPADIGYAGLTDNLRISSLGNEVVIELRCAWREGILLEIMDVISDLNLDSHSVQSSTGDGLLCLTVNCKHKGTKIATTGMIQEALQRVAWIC
Described as above. As to conditions: both partners purified.

Turning to B1, the binding result in assay [1] is on record as “binds”.
On the same count and under the same terms, under B2 stands “binds”.
In the case of B3, the binding result in assay [2] is “binds”.
